Numbering of substitutions follows the chain as printed. Names may count otherwise. “And” between values parts separate entries of the source, which are not always exact repeats. Equal entries are not always repeated.
Legend:
[1] = molecular target: T1, recombinant human IL-8, (ser-IL-8)72 (human, UniProt P10145 28-99, 125I label on tyrosine in the tracer form; the letters do not carry it); test: KinExA equilibrium constant; column head Kd
T1 construct: also called human wild type IL-8; HuIL-8
T1 sequence: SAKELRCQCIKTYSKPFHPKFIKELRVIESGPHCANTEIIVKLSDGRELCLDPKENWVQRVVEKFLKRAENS
Experimental: (§1) The beads were resuspended in assay buffer (0.1% bovine serum albumin in PBS) to a final volume of 30 ml.
(§2) The equilibrium constant (Kd) was calculated using the software provided by Sapidyne Instruments Inc.

[2] = molecular target: T1, recombinant human IL-8, (ser-IL-8)72; test: competition: inhibition of 125I-IL-8 binding to human neutrophils
TNF = TNF (UniProt P01375 77-233, limits assumed); test: ELISA, cytokines coated onto plates
Sequence of TNF (P01375 77-233 limits assumed): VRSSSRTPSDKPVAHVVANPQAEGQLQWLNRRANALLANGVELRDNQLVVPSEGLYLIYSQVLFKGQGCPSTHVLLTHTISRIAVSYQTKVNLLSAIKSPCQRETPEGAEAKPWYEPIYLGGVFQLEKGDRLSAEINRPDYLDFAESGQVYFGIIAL

C5a = molecular target: T2, C5a (UniProt P01031 678-751); test: ELISA, cytokines coated onto plates
T2 sequence (looked up): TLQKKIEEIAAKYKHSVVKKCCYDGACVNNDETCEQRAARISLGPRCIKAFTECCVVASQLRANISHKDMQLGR

PF4 = molecular target: T3, PF4 (UniProt P02776 32-101); test: ELISA, cytokines coated onto plates
T3 construct: also called platelet factor 4
T3 sequence (looked up): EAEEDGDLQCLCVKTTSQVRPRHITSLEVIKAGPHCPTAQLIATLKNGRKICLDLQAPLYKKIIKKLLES

MGSA = molecular target: T4, MGSA (UniProt P09341 35-107); test: ELISA, cytokines coated onto plates
T4 sequence (looked up): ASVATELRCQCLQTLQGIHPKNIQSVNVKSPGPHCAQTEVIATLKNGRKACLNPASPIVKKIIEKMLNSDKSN

β-TG = molecular target: T5, β-TG (UniProt P02775 48-128); test: ELISA, cytokines coated onto plates
T5 construct: also called b-TG
T5 sequence (looked up): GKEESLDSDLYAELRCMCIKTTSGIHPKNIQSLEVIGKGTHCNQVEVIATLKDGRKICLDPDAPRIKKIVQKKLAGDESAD

[3] = molecular target: T1, recombinant human IL-8, (ser-IL-8)72; test: competition binding: the antibody is varied (Cold Ligand, nM) and blocks 125I-IL-8 binding to IL-8 receptors on human neutrophils
Experimental: (§3) The periplasmic fraction was collected and passed over a Hi-Trap Protein-G column (Pharmacia, Piscataway, N.J.) followed by a desalting and concentration step. The protein was analyzed by SDS-PAGE, mass spectrometry and amino acid analysis.

[4] = molecular target: T1, recombinant human IL-8, (ser-IL-8)72; test: competition binding: the Fab is varied (Cold Ligand, nM) and blocks 125I-IL-8 binding to IL-8 receptors on human neutrophils
Experimental: as §3

human monomeric IL-8 = human monomeric IL-8 (human); test: cell-based or functional assay
rhesus IL-8 = molecular target: T6, rhesus IL-8 (rhesus, UniProt P67813 23-101, limits assumed); test: cell-based or functional assay
T6 sequence (looked up): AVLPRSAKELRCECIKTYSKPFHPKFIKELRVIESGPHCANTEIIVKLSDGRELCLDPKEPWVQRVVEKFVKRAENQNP

[5] = molecular target: T1, recombinant human IL-8, (ser-IL-8)72; test: competition binding: the Fab is varied (Cold Ligand, nM) and blocks 125I-IL-8 binding to IL-8 receptors on human neutrophils; remark: listed apart in the source
Text: The displacement curves from a representative binding experiment performed in duplicate is depicted in FIG. 38.

[6] = molecular target: T1, recombinant human IL-8, (ser-IL-8)72; test: competition: inhibition of IL-8 binding to human neutrophils (experiment of FIG. 54B); Fab control of FIG. 54B
[7] = molecular target: T1, recombinant human IL-8, (ser-IL-8)72; test: cell-based or functional assay
rabbit IL-8 = molecular target: T7, rabbit IL-8 (rabbit, UniProt P19874 23-101, limits assumed); test: cell-based or functional assay
T7 sequence (looked up): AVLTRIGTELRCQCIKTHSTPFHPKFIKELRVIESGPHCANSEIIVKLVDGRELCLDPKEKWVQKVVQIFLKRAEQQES

[8] = molecular target: T1, recombinant human IL-8, (ser-IL-8)72; test: competition binding: the Fab inhibits binding of 125I-IL-8 to human neutrophils; Bound/Total against antibody competitor (nM)
[9] = molecular target: T1, recombinant human IL-8, (ser-IL-8)72; test: KinExA, IL-8-coated beads, solution equilibrium
Experimental: as §1, §2

[10] = molecular target: T1, recombinant human IL-8, (ser-IL-8)72; test: competition binding: the Fab inhibits binding of 125I-IL-8 to human neutrophils; Bound/Total against antibody competitor (nM); remark: listed apart in the source
[11] = molecular target: T1, recombinant human IL-8, (ser-IL-8)72; test: competition binding: the antibody inhibits binding of 125I-IL-8 to human neutrophils; Bound/Total against cold ligand (nM)
Experimental: Neutrophils were prepared by using Mono-Poly Resolving Medium (M-PRM) (Flow Lab. Inc., McLean. Va.). Briefly fresh, heparinized human blood was loaded onto M-PRM at a ratio of blood to medium, 3.5:3.0, and centrifuged at 300×g for 30 min at room tem perature. Neutrophils enriched at the middle layer were collected and washed once in PBS. […] The receptor binding assay was done as follows. […] The supernatant was removed by aspiration and the radioactivity associated with the pellet was counted in a gamma counter.

[12] = molecular target: T1, recombinant human IL-8, (ser-IL-8)72; test: KinExA, IL-8-coated beads
Experimental: as §1, §2

[13] = molecular target: T1, recombinant human IL-8, (ser-IL-8)72; test: competition: inhibition of iodinated IL-8 binding to human neutrophils
[14] = molecular target: T1, recombinant human IL-8, (ser-IL-8)72; test: competition phage ELISA on plate-bound K64C IL-8
Experimental: The first step of the assay requires that the concentrations of the phage carrying the wild type and mutated antibodies be normalized, allowing a comparison of the relative affinities of each antibody. […] The plates were washed once more and stored covered at 4° C. with 200 ul of PBS/well. […] The phage were resuspended in 500 ul […] Tris-HCl pH 7.5, 1 mM EDTA and […] NaCl and held at 4° C. for no longer than 3 hours. […] The phage were next serially diluted in 3 fold steps down the plate from well A through H. The plates were incubated for I hour at 25° C. followed by nine quick washes with PBS containing 0.05% Tween-20 (PBST).

[15] = molecular target: T1, recombinant human IL-8, (ser-IL-8)72; test: competitive RIP with unlabeled IL-8, Scatchard analysis

B1: murine anti-rabbit IL-8 monoclonal antibody 6G4.2.5 (antibody, mouse IgG2a, V domains shown)
VH: EIQLQQSGPELMKPGASVKISCKASGYSFSSHYMHWVKQSHGKSLEWIGYIDPSNGETTYNQKFKGKATLTVDTSSSTANVHLSSLTSDDSAVYFCARGDYRYNGDWFFDVWGAGTTVTVSS
VL: DIVMTQTPLSLPVSLGDQASISCRSSQSLVHGIGNTYLHWYLQKPGQSPKLLIYKVSNRFSGVPDRFSGSGSGTDFTLRISRVEAEDLGLYFCSQSTHVPLTFGAGTKLELK
notes: full length murine IgG2a from hybridoma ATCC HB 11722; also called 6G4 murine mAb; intact murine 6G4.2.5 antibody
In the case of B1, the Kd [1] is reported as 0.35 nM, the IC50 [2] is reported as 5 nM and the binding result (TNF) is reported as “no binding”. B1: no binding (C5a); no binding (PF4); no binding (MGSA). For the same binder, the binding result (β-TG) was “no binding” and the “IC50 (read off the curve)” value [3] was ~7 nM.

B2: humanized 6G425 F(ab)-9 (humanized 6G4V11 Fab) (Fab, V domains shown)
VH: EVQLVQSGGGLVQPGGSLRLSCAASGYSFSSHYMHWVRQAPGKGLEWVGYIDPSNGETTYNQKFKGRFTLSRDNSKNTAYLQMNSLRAEDTAVYYCARGDYRYNGDWFFDVWGQGTLVTVSS
VL: DIQMTQSPSSLSASVGDRVTITCRSSQSLVHGIGNTYLHWYQQKPGKAPKLLIYKVSNRFSGVPSRFSGSGSGTDFTLTISSLQPEDFATYYCSQSTHVPLTFGQGTKVEIKR
notes: F(ab)-6 with murine Gln for Glu at H6; also called version 11; 6G4.2.5V11
B2 was tested, and the “IC50 (read off the curve)” value [4] was ~6 nM, the “IC50, inhibition of IL-8 mediated neutrophil chemotaxis” value (human monomeric IL-8) was ~15 nM and the “IC50, inhibition of IL-8 mediated neutrophil chemotaxis” value (rhesus IL-8) was ~22 nM.

B3: 6G4V11N35A Fab (Fab, V domains shown)
VH: B2 VH
VL: B2 VL with N35A
notes: also called 6G4.2.5V11N35A Fab; Fab control
With B3 the “IC50 (read off the curve)” value [5] was 1 to 2 nM, the IC50 [6] was 0.802 nM and the “IC50, blocking IL-8 mediated chemotaxis” value [7] was 0.8 nM. The “average IC50, inhibition of human IL-8 mediated neutrophil chemotaxis” value [7] was 2.7 nM, the “average IC50, inhibition of IL-8 mediated neutrophil chemotaxis” value (human monomeric IL-8) was 1 nM and the “average IC50, inhibition of IL-8 mediated neutrophil chemotaxis” value (rabbit IL-8) was 5 nM. The IC50 [8] was 0.264 nM and 0.468 nM, the Kd [9] was ~0.114 nM and the IC50 [10] was 0.294 nM.

B4: full length 6G4V11N35E IgG1 (antibody, V domains shown, not shown: a dimerising Fc or GST)
VH: B2 VH
VL: B2 VL with N35E
notes: made in CHO cells
In the case of B4, the IC50 [2] is reported as ~0.5 nM, the IC50 [11] is reported as 0.468 nM and the “IC50, inhibition of IL-8 mediated human neutrophil chemotaxis” value [7] is reported as 6 nM. It also gave a Kd [12] of ~0.049 nM.

B5: humanized 6G425 F(ab)-6 (Fab, V domains shown)
VH: B2 VH with Q6E
VL: B2 VL
notes: also called version 8
B5 was tested, and the IC50 [13] was 34.6 nM.

B6: h6G4V11 Y37A (CDR-L1), phage-displayed (Fab, V domains shown)
VH: B2 VH
VL: B2 VL with Y37A
notes: alanine-scan mutant of m36
B6: no binding [14].

B7: anti-IL-8 monoclonal antibody 5.12.14 (antibody, mouse IgG2a, V domains shown)
VH: EVQLVESGGGLVPPGGSLKLSCAASGFIFSSYGMSWVRQTPGKSLELVATINNNGDSTYYPDSVKGRFTISRDNAKNTLYLQMSSLKSEDTAMFYCARALISSATWFGYWGQGTLVTVSA
VL: DIVMTQSQKFMSTSVGDRVSVTCKASQNVGTNVAWYQQKPGQSPKALIYSSSYRYSGVPDRFTGSGSGTDFTLTISHVQSEDLADYFCQQYNIYPLTFGPGTKLELK
notes: murine IgG2a from hybridoma ATCC HB 11553
B7 gave a Kd [15] of 0.3 nM.

Source: patent publication US20070048219A1 (Genentech, published 2007)
